The assay concerns the target ActHIB, Haemophilus influenzae type b capsular polysaccharide (PRP) tetanus toxoid conjugate, withou (UniProt P04958 2-1315). The experiment in a line: competitive ELISA, soluble murine Fc-dectin-1a on coated glucan.

Experimental findings from patent US20250186580A1 (TRIDEM BIOSCIENCE, published 2025) are described below.

B1: soluble murine Fc-dectin-1a receptor (InvivoGen) (Fc fusion)
chain: EYGHNSGRNPEEKDNFLSRNKENHKPTESSLDEKVAPSKASQTTGGFSQPCLPNWIMHGKSCYLFSFSGNSWYGSKRHCSQLGAHLLKIDNSKEFEFIESQTSSHRINAFWIGLSRNQSEGPWFWEDGSAFFPNSFQVRNTAPQESLLHNCVWIHGSEVYNQICNTSSYSICEKEL
For B1, the binding result is “no binding”.
